Where two headings read alike, the source gives them in different places.
T1: MBP:Hts^ALDO (Drosophila (S2 cell cDNA library))
T1 chain: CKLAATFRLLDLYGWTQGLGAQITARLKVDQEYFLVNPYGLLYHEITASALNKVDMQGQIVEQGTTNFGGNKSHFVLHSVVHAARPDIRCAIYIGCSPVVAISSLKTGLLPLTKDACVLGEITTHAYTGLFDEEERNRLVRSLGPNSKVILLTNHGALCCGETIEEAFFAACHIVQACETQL

T2: MBP:Hts^FL (Drosophila (S2 cell cDNA library))
T2 chain: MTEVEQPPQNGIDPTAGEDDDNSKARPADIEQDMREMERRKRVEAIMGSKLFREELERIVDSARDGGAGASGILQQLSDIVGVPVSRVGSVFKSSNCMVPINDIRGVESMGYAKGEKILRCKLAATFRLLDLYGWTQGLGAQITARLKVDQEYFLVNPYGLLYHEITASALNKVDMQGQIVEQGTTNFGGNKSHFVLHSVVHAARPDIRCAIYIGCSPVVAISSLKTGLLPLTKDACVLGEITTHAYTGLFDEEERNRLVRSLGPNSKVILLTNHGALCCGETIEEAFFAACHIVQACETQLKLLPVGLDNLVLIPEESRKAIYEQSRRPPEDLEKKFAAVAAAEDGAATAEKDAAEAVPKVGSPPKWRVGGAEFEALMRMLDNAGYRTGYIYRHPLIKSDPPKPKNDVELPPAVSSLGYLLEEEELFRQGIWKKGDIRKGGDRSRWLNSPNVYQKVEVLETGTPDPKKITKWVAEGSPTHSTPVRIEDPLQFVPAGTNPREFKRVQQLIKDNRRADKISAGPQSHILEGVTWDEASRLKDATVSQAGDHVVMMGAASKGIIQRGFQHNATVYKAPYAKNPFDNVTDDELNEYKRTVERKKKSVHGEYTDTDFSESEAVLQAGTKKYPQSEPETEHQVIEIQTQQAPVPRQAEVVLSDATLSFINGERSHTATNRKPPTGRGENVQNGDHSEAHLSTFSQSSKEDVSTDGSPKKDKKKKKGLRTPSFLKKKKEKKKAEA

T3: MBP:Hts^1-319 (Drosophila (S2 cell cDNA library))
T3 chain: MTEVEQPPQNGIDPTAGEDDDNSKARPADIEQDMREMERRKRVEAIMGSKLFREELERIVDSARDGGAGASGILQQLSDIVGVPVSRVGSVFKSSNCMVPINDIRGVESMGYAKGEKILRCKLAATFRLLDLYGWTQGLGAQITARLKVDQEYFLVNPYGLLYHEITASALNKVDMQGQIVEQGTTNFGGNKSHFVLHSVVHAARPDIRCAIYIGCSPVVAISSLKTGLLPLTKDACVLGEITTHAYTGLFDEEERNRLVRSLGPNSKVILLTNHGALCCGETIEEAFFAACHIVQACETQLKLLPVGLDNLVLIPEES

T4: GST-fused Pins^TPR domains (Drosophila (S2 cell cDNA library), UniProt Q9VB22 1-658)
T4 chain: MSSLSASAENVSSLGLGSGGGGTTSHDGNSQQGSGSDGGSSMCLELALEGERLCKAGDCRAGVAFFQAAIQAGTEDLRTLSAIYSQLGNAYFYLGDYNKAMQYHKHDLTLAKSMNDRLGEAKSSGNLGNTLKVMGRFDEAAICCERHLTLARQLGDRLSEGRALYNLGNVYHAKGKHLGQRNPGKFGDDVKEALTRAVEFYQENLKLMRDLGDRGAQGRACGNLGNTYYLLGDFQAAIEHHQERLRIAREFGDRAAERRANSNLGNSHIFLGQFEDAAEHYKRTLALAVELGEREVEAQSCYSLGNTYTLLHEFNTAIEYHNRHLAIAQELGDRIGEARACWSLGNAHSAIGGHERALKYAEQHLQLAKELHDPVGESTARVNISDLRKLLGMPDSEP


Tests used:
MBP:Hts^ALDO = molecular target: T1, MBP:Hts^ALDO
MBP:Hts^FL [1] = molecular target: T2, MBP:Hts^FL
MBP:Hts^1-319 = molecular target: T3, MBP:Hts^1-319
MBP:Hts^FL [2] = molecular target: T2, MBP:Hts^FL
[3] = molecular target: T4, GST-fused Pins^TPR domains

Kd (MBP:Hts^ALDO) | Kd (MBP:Hts^FL [1]) | Kd (MBP:Hts^1-319) | Kd (MBP:Hts^FL [2]) | Kd [3] | Binder
760 nM | 620 nM | 550 nM | 1620 nM | 186 nM | Mud^CC-PBD (domain or fragment, 6xHis tag removed by TEV. Limits not printed: start set just before L1788 (N-terminal end of the CC), end at the conventional PBD boundary (about 1982). Needs the NB isoform that includes the CC and PBD exons. Three copies follow from the predicted parallel trimer.) KLALDCKILQAKYRDAKDEIKRCEKKIKDQRLEMEGKLEKMKNKMRSLYTAEVTRMKEKQERDAAKSASELEALTAQNAKYEEHTRKLSNQIVRLNEKILEQQKQHAIISTNLRHLQMQPISETKPSSTTLTVSSSSSAPNDDWQPFKRPNVPSSNLAMEDEEGEVFNNTYLTDLKLGRVPADMTAEELIYRNSLQPPHLKST
 |  |  |  | 189 nM | Mud^CC-PBD L1788E/I1878D (ED) mutant (domain or fragment, 6xHis tag removed by TEV. The mutations disrupt the coiled-coil trimer. Limits not given, set by convention as for the wild type.) KLALDCKIEQAKYRDAKDEIKRCEKKIKDQRLEMEGKLEKMKNKMRSLYTAEVTRMKEKQERDAAKSASELEALTAQNAKYEEHTRKLSNQIVRLNEKDLEQQKQHAIISTNLRHLQMQPISETKPSSTTLTVSSSSSAPNDDWQPFKRPNVPSSNLAMEDEEGEVFNNTYLTDLKLGRVPADMTAEELIYRNSLQPPHLKST

Source: PMC10467427 (2023)
